Laboratory results taken from patent US20240309360A1, “TRANS-ACTIVATORS AND METHODS AND USE THEREOF” (THE GOVERNING COUNCIL OF THE UNIVERSITY OF TORONTO, priority 2021, published 2024).

B1: RYBP: YAF2_RYBP domain of RYBP (protein, listed as Homo sapiens)
chain: IQSANATTKTSETNHTSRPRLKNVDRSTAQQLAVTVGNVTVIITDFKEKTRSSSTSSSTVTSSAGSEQQNQS
B2: C3orf62-Cterm: C-terminal fragment of C3orf62 fused to SRF in the fusion (protein)
chain: AAVPCAPENENPAFATNHAPVNAKPHALCPERKPLTSKENVLMHSSILAPERESWRTAGEGENWRKENLRKDMERDLKADSNMPLNNSSQEVTKDLLDMIDHTSIRTIEELAGKIEFENELNHMCGHCQDSPFKEEAWALLMDKSPQKATDADPGSLKQAFDDHNIVETVLDLEEDYNVMTSFKYQIE
modifications: left off: things letters cannot carry; small tags and cut ends
notes: C-terminal fragment of C3orf62 fused to SRF in the fusion
B3: SRF: Serum Response Factor (protein)
chain: MLPTQAGAAAALGRGSALGGSLNRTPTGRPGGGGGTRGANGGRVPGNGAGLGPGRLEREAAAAAATTPAPTAGALYSGSEGDSESGEEEELGAERRGLKRSLSEMEIGMVVGGPEASAAATGGYGPVSGAVSGAKPGKKTRGRVKIKMEFIDNKLRRYTTFSKRKTGIMKKAYELSTLTGTQVLLLVASETGHVYTFATRKLQPMITSETGKALIQTCLNSPDSPPRSDPTTDQRMSATGFEETDLTYQVSESDSSGETKDTLKPAFTVTNLPGTTSTIQTAPSTSTTMQVSSGPSFPITNYLAPVSASVSPSAVSSANGTVLKSTGSGPVSSGGLMQLPTSFTLMPGGAVAQQVPVQAIQVHQAPQQASPSRDSSTDLTQTSSSGTVTLPATIMTSSVPTTVGGHMMYPSPHAVMYAPTSGLGDGSLTVLNAFSQAPSTMQVSHSQVQEPGGVPQVFLTASSGTVQIPVSAVQLHQMAVIGQQAGSSSNLTELQVVNLDTAHSTKSE
modifications: left off: things letters cannot carry; small tags and cut ends
notes: Serum Response Factor
B4: C3orf62: full-length C3orf62 protein (protein)
chain: MHYIKTWSLLGEMSEKLRRCRKELTAAIDRAFEGVSYSQECTGQQRLELSAAPLSFSLPVHRLLCRRHPLAACSSAAPFAAVPCAPENENPAFATNHAPVNAKPHALCPERKPLTSKENVLMHSSILAPERESWRTAGEGENWRKENLRKDMERDLKADSNMPLNNSSQEVTKDLLDMIDHTSIRTIEELAGKIEFENELNHMCGHCQDSPFKEEAWALLMDKSPQKATDADPGSLKQAFDDHNIVETVLDLEEDYNVMTSFKYQIE
modifications: left off: things letters cannot carry; small tags and cut ends
notes: full-length C3orf62 protein
B5: CBX6: CBX-C domain of CBX6 (protein, listed as Homo sapiens)
chain: GASSEPEAGDWRPEMSPCSNVVVTDVTSNLLTVTIKEFCNPEDFEKVAAGVAGAAGGGGSIGASK
B6: SPDYC: Spy1/RINGO family protein (protein, listed as Homo sapiens)
chain: MLWAIPELGSPCPISISYEMSDSQDPTTSPVVTTQVELGGCSRQGGGNGFLRFRQHQEVQAFLSLLEDSFVQEFLSKDPCFQISDKYLLAMVLVYFQRAHLKLSEYTHSSLFLALYLANDMEEDLEGPKCEIFPWALGKDWCLRVGKFLHQRDKLWARMGFRAVVSRQCCEEVMAKEPFHWAWTRDRRPHHGGVQRVCPQVPVRLPRGPGLSPPHCSPCGLPQHCSSHLLKPVSSKCPSLTSECHRPPSQNYLSRVKNAWGGDFLIVLPPQMQLEPGTYSLRIFPKPPARPGH

How the values were obtained:
[1] = test system: EGFP reporter (7×TetO array, basal CMV promoter) in HEK293T reporter cell line; assay: Arrayed recruitment assay, PYL1 fusions individually recruited to reporter via ABI1-dCas9 with ABA; format: cell-based, human; details: PYL1 fusion, ABA 48 hours, flow cytometry
Source text: Treatment of cells with abscisic acid (ABA) induces an interaction between ABI1 and PYL1, thereby recruiting the potential transcriptional activator to a specific genomic locus defined by the guide RNA (gRNA). As a reporter, a HEK293T cell line that contains a stably integrated construct with a 7×TetO array and a basal CMV promoter driving the expression of EGFP was used (Gao et al., 2016). A monoclonal cell line that expresses ABI1-dCas9 and a single gRNA targeting TetO was generated by lentiviral infection.
Arrayed recruitment assays. Reporter cells stably co-expressing ABI-dCas9 and TetO gRNA were seeded either on 48-well or 96-well plates (Sarstedt) to reach 50-70% confluency on the day of transfection. 150 ng of each construct to be tested was transfected with polyethylenimine (PEI) at a ratio of 0.6 μl reagent. The day after transfection, recruitment was induced by treatment with ABA (100 μM). […] Inhibitors were dissolved in DMSO to a stock concentration of 10 mM. The final concentrations used were 100 nM for flavopiridol, 300 nM for JQ1, 1 μM for A-485, 2.5 μM for CX-4945 and 3 μM for AZ191. All inhibitors were a kind gift from the Structural Genomics Consortium (SGC). 48 hours after induction, cells were dissociated and resuspended in flow buffer using a liquid handing robot (TECAN) and analyzed by LSR Fortessa (BD). Cells were gated on high EBFP2 and RFP as a measure of gRNA and transfection control, respectively. Flow cytometry data was analyzed using FlowJo (v10).

[2] = test system: NIH3T3 cells gene expression; assay: RNA sequencing of NIH-3T3 cells with doxycycline-inducible EGFP-tagged constructs; format: cell-based, mouse; details: GFP-tagged
Source text: The SRF/TCF pathway, which is regulated by MAP kinase signaling, regulates the expression of immediate-early genes (Gualdrini et al., 2016), whereas the actin-Rho signaling dependent SRF/MRTF pathway targets genes involved in cell motility and adhesion (Miralles et al., 2003). To test if SRF-C3orf62 can regulate target genes of both pathways, stable doxycycline-inducible NIH3T3 cell lines stably expressing SRF, C3orf62, SRF-C3orf62 and Nanoluc fused to GFP were generated. Transgene expression was induced with doxycycline for 24 hours and changes in gene expression were analyzed by RNA-seq. […] These signatures are consistent with the oncogenic nature of the SRF-C3orf62 fusion. […] In contrast, many well-characterized immediate-early target genes of SRF/TCF such as FOS, EGR1, or EGR2 were not affected by ectopic SRF-C3orf62 expression (FIG. 5H).
RNA sequencing and analysis. NIH-3T3 cells with stable integrations of SRF, C3orf62, SRF-C3orf62 or Nanoluc tagged at the C-terminus with EGFP were induced with 1 μg/mL doxycycline for 24 hours. […] Reads were aligned to the Gencode mouse primary assembly (GRCm39) with STAR aligner v2.7.8a. […] Changes in gene expression compared to cells expressing Nanoluc-EGFP were quantified using the edgeR package (Robinson et al., 2010).

[3] = test system: serum response element reporter in NIH3T3 cells; assay: SRF reporter assay (SRE-Firefly luciferase); format: cell-based, mouse; details: NIH3T3 fibroblasts, 3×FLAG tagged constructs, no cofactors
Protocol: SRF functions together with either ternary complex factors (TCFs; e.g. ELK1) or myocardin-related transcription factors (MRTFs; e.g. MAL) to regulate target gene expression (Buchwalter et al., 2004; Olson and Nordheim, 2010). […] To test this further, the activity of different constructs was assayed in NIH3T3 fibroblasts using a luciferase-based serum response element reporter (Vartiainen et al., 2007).
SRF reporter assay. 30,000 NIH-3T3 cells on 24-well plates were transfected with 8 ng SRF reporter (p3DA.luc), 20 ng reference reporter (pcDNA3.1-Nanoluc-3×FLAG-V5) and 50 ng 3×FLAG tagged constructs (Addgene #87063). Transfection was carried out using Lipofectamine 3000 reagent (Thermo Fisher Scientific, L3000001) according to the manufacturer's protocols. Luciferase constructs were a kind gift from Dr. Maria Vartiainen (University of Helsinki). Cells were maintained in low-serum media (0.5% BCS) for 18 hours and stimulated for 7 hours (15% BCS), after which luciferase activity was measured. Firefly luciferase was normalized to Renilla luciferase activity using data from four independent transfections.

Row | Molecule | activation of the EGFP reporter when individually tested [1] | effects on the transcriptome compared to Nanoluc [2] | activation of serum response element luciferase reporter [3]
1 | B1 | robustly activated the reporter | – | –
2 | B2 | strongly activated the GFP reporter | – | –
3 | B3 | – | very limited or no effects on the transcriptome | did not activate the reporter
4 | B4 | – | very limited or no effects on the transcriptome | did not activate the reporter
5 | B5 | activated the reporter weakly | – | –
6 | B6 | inactive in the recruitment assay | – | –
